The results in this text go back to article PMC3936774.

Where two headings read alike, the source gives them in different places.

Broadly, the Kd is the free concentration of one partner at which half of the binding sites on the other are occupied at equilibrium, for simple one-to-one binding. Read a high Kd as weaker binding.

The target in one data set is Ec Hfq Q95W (Escherichia coli, UniProt P0A6X3 1-102, Q95W). Nature of the data set: fluorescence polarization. Background: In fluorescence polarisation assays a small probe gives low polarisation when free and higher when bound to something large.
For data set [1], the target named is T1, Ec Hfq G77W (Escherichia coli, UniProt P0A6X3 1-102, G77W). Nature of the data set: fluorescence polarization.
In data set [2] the target is T2, Ec Hfq F42W (Escherichia coli, UniProt P0A6X3 1-102, F42W). Nature of the data set: fluorescence polarization.
Data set [3] addresses T3, Ec Hfq R17W (Escherichia coli, UniProt P0A6X3 1-102, R17W). Nature of the data set: fluorescence polarization.
Data set [4] concerns the target T4, Ec Hfq F39W (Escherichia coli, UniProt P0A6X3 1-102, F39W). Nature of the data set: fluorescence polarization.
For data set [5], the target named is T5, Ec Hfq Y83W (Escherichia coli, UniProt P0A6X3 1-102, Y83W). Nature of the data set: fluorescence polarization.
The target in the next data set is Ec Hfq K31W (Escherichia coli, UniProt P0A6X3 1-102, K31W). Nature of the data set: fluorescence polarization.
In data set [6] the target is T6, Ec Hfq F11W (Escherichia coli, UniProt P0A6X3 1-102, F11W). Nature of the data set: fluorescence polarization.
A further data set addresses Ec Hfq Q33W (Escherichia coli, UniProt P0A6X3 1-102, Q33W). Nature of the data set: Trp fluorescence quenching.
For data set [7], the target named is T2, Ec Hfq F42W. Nature of the data set: Trp fluorescence quenching.
The target of data set [8] is T4, Ec Hfq F39W. Nature of the data set: Trp fluorescence quenching.
In data set [9] the target is T5, Ec Hfq Y83W. Nature of the data set: Trp fluorescence quenching.
For another data set, the target named is Ec Hfq Y25W (Escherichia coli, UniProt P0A6X3 1-102, Y25W). Nature of the data set: Trp fluorescence quenching.
Data set [10] addresses T6, Ec Hfq F11W. Nature of the data set: Trp fluorescence quenching.
Data set [11] concerns the target T5, Ec Hfq Y83W. Nature of the data set: Trp fluorescence quenching. This is another data set of the same source.
The target in another data set is Sa Hfq Q31W (Staphylococcus aureus, UniProt A0A0H3JV59 1-77, Q31W). Nature of the data set: Trp fluorescence quenching.
The next data set has as its target T7, Lm Hfq F43W (Listeria monocytogenes, UniProt Q92C58 1-77, F43W).
T7 sequence: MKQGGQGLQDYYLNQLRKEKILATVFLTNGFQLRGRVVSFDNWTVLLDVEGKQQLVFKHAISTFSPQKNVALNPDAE
Nature of the data set: Trp fluorescence quenching.

Another data set deals with Sa Hfq F25W (Staphylococcus aureus, UniProt A0A0H3JV59 1-77, F25W). Nature of the data set: Trp fluorescence quenching.
Data set [12] deals with T1, Ec Hfq G77W. Nature of the data set: Trp fluorescence quenching.
For data set [13], the target named is T3, Ec Hfq R17W. Nature of the data set: Trp fluorescence quenching.
The next data set has as its target Hfq WT (Escherichia coli, UniProt P0A6X3 1-102). Nature of the data set: fluorescence polarization.

B1: A15 (fluorescein) (ssRNA)
RNA: AAAAAAAAAAAAAAA
For B1, the Kd with Ec Hfq Q95W was 2.6 ± 1.1 nM; with Ec Hfq G77W [1], 2.9 ± 1.7 nM; with Ec Hfq F42W [2], 0.28 ± 0.09 nM; with Ec Hfq R17W [3], 3.7 ± 1.5 nM; with Ec Hfq F39W [4] it was 0.59 ± 0.35 nM; with Ec Hfq Y83W [5], 7.4 ± 2.8 nM. Moreover, the figures for the Kd with Ec Hfq K31W and in the data set with Ec Hfq F11W [6] were 1.4 ± 0.5 nM and 7.1 ± 0.6 nM, respectively.

B2: hfq mRNA site B 24-mer (ssRNA)
RNA: GCAUAUAAGGAAAAGAGAGAAUGG
Regarding B2, the binding result with Ec Hfq Q33W, with Ec Hfq F42W [7], with Ec Hfq F39W [8], in the data set with Ec Hfq Y83W [9], with Ec Hfq Y25W and with Ec Hfq F11W [10] was “binds” throughout.

B3: (GGA)5 (ssRNA)
RNA: GGAGGAGGAGGAGGA
With B3, the binding result with Ec Hfq F42W [7] and with Ec Hfq Y83W [11] was “binds” each time.

B4: (AU)3A (ssRNA)
RNA: AUAUAUA
As for B4, the binding result with Sa Hfq Q31W, with Lm Hfq F43W and with Sa Hfq F25W was “binds” in each case.

B5: (AC)3A (ssRNA)
RNA: ACACACA
As to B5, the binding result with Sa Hfq Q31W and with Sa Hfq F25W was “binds” each time.

B6: A15 (ssRNA)
RNA: AAAAAAAAAAAAAAA
As to B6, the binding result in the data set with Ec Hfq Q33W, with Sa Hfq Q31W, with Ec Hfq Y25W and with Sa Hfq F25W was “binds” throughout.

B7: U6 (ssRNA)
RNA: UUUUUU
As for B7, the binding result with Ec Hfq F42W [7] and with Lm Hfq F43W was “binds” throughout.

B8: hfq mRNA site A 24-mer (structured_RNA)
RNA: AUUUUUUCAGAAUCGAAAGGUUCA
Consider B8, for which the binding result with Ec Hfq Q33W, in the data set with Ec Hfq G77W [12], in the data set with Ec Hfq F39W [8] and in the data set with Ec Hfq Y83W [9] was “binds” each time.

B9: hfq 5'-UTR (64 nt) (structured_RNA)
RNA: GGAUUUUUUCAGAAUCGAAAGGUUCAAAGUACAAAUAAGCAUAUAAGGAAAAGAGAGAAUGGGAUC
Regarding B9, the binding result with Ec Hfq Q33W, with Ec Hfq F42W [7] and in the data set with Ec Hfq R17W [13] was “binds” each time.

B10: U16 (fluorescein) (ssRNA)
RNA: UUUUUUUUUUUUUUUU
For B10, the Kd with Hfq WT stood at 6.6 nM.

B11: (AAG)5 (ssRNA)
RNA: AAGAAGAAGAAGAAG
As to B11, the binding result with Ec Hfq Q33W and with Ec Hfq F11W [10] was “binds” in each case.

B12: (GU)3G (ssRNA)
RNA: GUGUGUG
On to B12, for which, in the data set with Lm Hfq F43W, the binding result was “binds”.
